This is an account of results in patent publication US20230137032A1 (GlaxoSmithKline, published 2023).

In assay [1] the target is T1, human BCMA expressed on cells (human, UniProt Q02223 1-184).
T1 construct: whole, on cells; also called human BCMA HEK293; ARH77-hBCMA 10B5 BCMA expressing transfectant cells
T1 sequence (looked up): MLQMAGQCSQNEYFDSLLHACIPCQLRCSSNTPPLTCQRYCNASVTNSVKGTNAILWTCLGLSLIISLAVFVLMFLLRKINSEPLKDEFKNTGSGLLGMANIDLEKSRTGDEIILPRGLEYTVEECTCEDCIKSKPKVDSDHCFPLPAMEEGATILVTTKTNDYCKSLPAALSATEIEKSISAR
Briefly: FACS on H929 multiple myeloma cells, antibody 5 µg/mL, PE anti-mouse IgG. On the procedure:
Cells were incubated for 20 mins at room temperature (RT) and then washed with FACS buffer (PBS+0.5% BSA+0.1% sodium azide) to remove unbound antibody. Cells were incubated with a secondary PE labelled anti-mouse IgG antibody for 15 minutes at RT and then washed with FACS buffer to remove unbound antibody. Cells were analysed by FACS to detect antibody bound to the cells.

Assay [2] concerns the target T2, recombinant cyno BCMA, in house material (cyno, UniProt A0A2K5UD97 4-52).
T2 construct: also called Cyno in house BCMA
Briefly: ProteOn SPR run 2, antibody captured on Protein A, 25C.

Assay [3] concerns the target T3, recombinant human BCMA, commercial (US Biological, B0410) (human, UniProt Q02223 5-54, limits assumed).
T3 construct: also called commercial human BCMA; Human commercial BCMA
T3 chain (looked up): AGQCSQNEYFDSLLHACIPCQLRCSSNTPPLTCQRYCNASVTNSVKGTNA
The assay is described as above.

Assay [4] addresses T4, recombinant human BCMA, in house material (human, UniProt Q02223 4-53, limits assumed).
T4 construct: also called Human in house BCMA; In house human BCMA
The assay is described as follows: ProteOn SPR run 1, antibody captured on Protein A, 25C; Run 1 (Table 8). On the procedure: (§1) The initial screen of CA8 chimeric and humanised variants was carried out on the ProteOn XPR36 (Biorad). The method was as follows; Protein A was immobilised on a GLC chip (Biorad, Cat No: 176-5011) by primary amine coupling, CA8 variants were then captured on this surface and recombinant human BCMA (in house or commercial US Biological, B0410) materials (run 2 only)) passed over at 256, 64, 16, 4, 1 nM with a 0 nM injection (i.e. buffer alone) used to double reference the binding curves, the buffer used is the HBS-EP buffer. 50 mM NaOH was used to regenerate the capture surface. The data was fitted to the 1:1 model using the analysis software inherent to the ProteOn XPR36. […] Both runs were carried out at 25° C.

Assay [5] addresses T4, recombinant human BCMA, in house …. The assay is described as follows: ProteOn SPR run 2, antibody captured on Protein A, 25C; Run 2 (Table 9). On the procedure: as §1
For assay [6], the target named is T5, recombinant human BCMA Fc 4-53 (human).
T5 construct: also called Human BCMA CD33-hBCMA ECD (4-53) TEV-Fc; recombinant BCMA
The assay is described as follows: competition ELISA: binding of recombinant human APRIL to coated recombinant human BCMA Fc 4-53, biotinylated anti-APRIL and streptavidin-HRP, % of control. On the procedure: (§2) 96 well flat bottomed plates were coated overnight with 1 μg/mL solution of recombinant human BCMA Fc 4-53 in PBS. Following a wash step using 0.05% TWEEN20, plates were blocked with 2% Bovine Serum Albumin solution in PBS for 1 hour at room temperature. […] 40 μL of 2% BSA was added to the relevant control wells. […] Equivalent volume of 2% BSA was added to the relevant control wells. Plates were allowed to incubate for 2 hours at room temperature, after which they were washed as before. […] Following a wash step, 50 µL of a 1:4000 dilution of Streptavidin-HRP (Amersham RPN4401) was added to each well and incubated for 30 minutes at room temperature. The wash process was repeated again followed by the addition of […] of Tetramethylbenzidine substrate solution (T8665, Sigma) into each well. Plates were incubated for 20-25 minutes at room temperature, wrapped in foil. The reaction was stopped with the addition of […] of 1M H₂SO₄. Optical density was determined at 450 nm using Spectromax reader.
A general note: ELISA stands for enzyme-linked immunosorbent assay.

Assay [7] addresses T1, human BCMA expressed on cells. Briefly: cell-based or functional assay.
Assay [8] concerns the target T5, recombinant human BCMA Fc 4-53. Briefly: ELISA, neutralisation of ligand binding to plate-coated BCMA Fc 4-53; competitor APRIL; competitor APRIL. As for the experimental part: as §2
Assay [9] shares this target. Briefly: ELISA, neutralisation of ligand binding to plate-coated BCMA Fc 4-53; competitor BAFF; competitor BAFF. As for the experimental part:
as §2

The target is the same in assay [10]. The assay is described as follows: competition ELISA: binding of recombinant human BAFF to coated recombinant human BCMA Fc 4-53, biotinylated anti-BAFF and streptavidin-HRP, % of control. As for the experimental part: as §2
For assay [11], the target named is T1, human BCMA expressed on cells. The assay is described as follows: FACS on ARH77-hBCMA 10B5 transfectant cells, PE anti-human IgG, MFI. As for the experimental part: Cells were then washed with FACS buffer (PBS+0.5% BSA+0.1% sodium azide) to remove unbound antibody. Cells were incubated with a secondary PE labelled anti-human IgG antibody for 15 minutes at RT and then washed with FACS buffer to remove unbound antibody. Cells were analysed by FACS and mean fluorescence intensity (MFI) values measured to determine binding.

For assay [12], the target named is T2, recombinant cyno BCMA, in house material. The assay is described as follows: Biacore T100, antibody captured on Protein A, 37C. (In general: SPR reads the build-up and loss of mass on a sensor chip optically.)
Assay [13] has as its target T3, recombinant human BCMA, commercial (US …). The assay is described as follows: Biacore T100, antibody captured on Protein A, 37C.
The target is the same in assay [14]. Briefly: Biacore T100, antibody captured on Protein A, 37C, experiment 1. As for the experimental part:
(§3) Protein A was immobilised on a CMS chip (GE Healthcare, Cat No: BR-1005-30) by primary amine coupling and this surface was then used to capture the antibody molecules. Recombinant human BCMA (US Biological, B0410) was used as analyte at 256 nM, 64 nM, 16 nM, 4 nM and 1 nM. Regeneration of the capture surface was carried out using 50 mM NaOH. All binding curves were double referenced with a buffer injection (i.e. 0 nM) the data was fitted to the using the 1:1 model inherent to T100 evaluation software. The run was carried out at 25° C. and 37° C. for experiment 1 and only 37° C. for experiment 2 using HBS-EP as the running buffer.

Assay [15] shares this target. The assay is described as follows: Biacore T100, antibody captured on Protein A, 25C, experiment 1. As for the experimental part:
as §3

Assay [16] has the same target. Briefly: Biacore T100, antibody captured on Protein A, 37C, experiment 2. As for the experimental part:
as §3

B1: murine S322110D07 (antibody, V domains shown)
VH: EVQLQQSGPELVKPGTSVKIPCKTSGYIFTDYSIDWVKQSHGKSLEWIGDIDPNYGDPIYNHKFKGKATLTVDRSSSTAYMELRSLTSEDTAVYFCARRATGTDWFAFWGQGTLVTVSS
VL: DIQMTQSPASLSVSVGETVTITCRASENIYNNLAWYQQKQGKSPQLLVYAATILADGVPSRFSGSGSGTQYSLKINSLQSGDFGTYYCQHFWGTPLTFGAGTKLELKR
notes: Murine hybridoma antibody; also called S3222110D07; S3322110D07
As to B1, the binding result in assay [1] is on record as “binds”.

B2: S307118G03 Chimera (antibody, human IgG1, kappa, V domains shown)
VH: EVQLQQSGPELVKPGASVKISCKASGYTFTDYYMKWVKQSHGKSLEWIGEIYPNNGGITYNQKFKGKATLTVDKSSSTAYMELRSLTSEDSAVYYCANGYEFVYWGQGTLVTVSA
VL: DIQMTQTASSLSASLGDRVTISCSASQGISNYLNWYQQKPDGTVKLLIYYTSSLHSGVPSRFSGSGSGTDYSLTISNLEPEDIATYYCQQYSKLPWTFGGGTKLELKR
notes: also called chimeric S307118G03
A word on the Kd: it is the free concentration of one partner at which half of the binding sites on the other are occupied at equilibrium, for simple one-to-one binding. B2: in assay [2], the binding result is listed as “no binding”. In addition, the Kd in [3] came out at 0.956 nM; in assay [4] it was 4.11 nM; in [5], 3.44 nM.

B3: J6M0 potelligent antibody (afucosylated humanised CA8 J6M0) (antibody, human IgG1, kappa, V domains shown)
VH: QVQLVQSGAEVKKPGSSVKVSCKASGGTFSNYWMHWVRQAPGQGLEWMGATYRGHSDTYYNQKFKGRVTITADKSTSTAYMELSSLRSEDTAVYYCARGAIYDGYDVLDNWGQGTLVTVSS
VL: DIQMTQSPSSLSASVGDRVTITCSASQDISNYLNWYQQKPGKAPKLLIYYTSNLHSGVPSRFSGSGSGTDFTLTISSLQPEDFATYYCQQYRKLPWTFGQGTKLEIKR
modifications: afucosylated (Potelligent) Fc glycan
notes: human IgG1 kappa; also called J6M0 potelligent version; CA8 J6M0 Potelligent
What is called EC50 is the midpoint of the concentration-response curve. In the case of B3, the “IC50 (read off the curve)” value in [6] is approximately 0.6 µg/mL; in [10] it was approximately 0.7 µg/mL. The “IC50 for inhibition of APRIL signalling (phosphorylated NFkappaB in washed H-929 cells)” value in assay [7] was found to be 2.43 µg/mL. The “IC50 for inhibition of BAFF signalling (phosphorylated NFkappaB in washed H-929 cells)” value in assay [7] worked out at 0.91 µg/mL. In addition, the EC50 in [8] came out at 0.616 µg/mL; in assay [9], 0.748 µg/mL.

B4: CA8 humanised J6M1 (antibody, human IgG1, kappa, V domains shown)
VH: QVQLVQSGAEVKKPGSSVKVSCKASGGTFSNYWMHWVRQAPGQGLEWMGATYRGHSDTYYNQKFKGRVTITADKSTSTAYMELSSLRSEDTAVYYCARGAIYDGYDVLDNWGQGTLVTVSS
VL: DIQMTQSPSSLSASVGDRVTITCSASQDISNYLNWYQQKPGKAPKLLIYYTSNLHSGVPSRFSGSGSGTDYTLTISSLQPEDFATYYCQQYRKLPWTFGQGTKLEIKR
notes: Humanised CA8, heavy chain J6 with light chain M1, human IgG1 kappa; also called CA8 J6M1
Turning to B4, the binding result in [11] was “binds”. Besides, the Kd in assay [2] is 5.3 nM; in assay [3], 0.063 nM; in assay [5], 0.124 nM.

B5: CA8 humanised J9M0 (antibody, human IgG1, kappa, V domains shown)
VH: QVQLVQSGAEVKKPGSSVKVSCKGSGYTFTNYWMHWVRQAPGQGLEWIGATYRGHSDTYYNQKFKGRATLTADTSTSTAYMELSSLRSEDTAVYYCTRGAIYDGYDVLDNWGQGTLVTVSS
VL: DIQMTQSPSSLSASVGDRVTITCSASQDISNYLNWYQQKPGKAPKLLIYYTSNLHSGVPSRFSGSGSGTDFTLTISSLQPEDFATYYCQQYRKLPWTFGQGTKLEIKR
notes: Humanised CA8, heavy chain J9 with light chain M0, human IgG1 kappa; also called CA8 J9M0
Take B5: in [11], the binding result is recorded as “binds”. Besides, the Kd in assay [12] is 0.46 nM; in [13], 0.035 nM; in assay [14], 0.042 nM; in [15], 0.021 nM; in [16] it was 0.052 nM.

B6: CA8 humanised J6M0 (antibody, human IgG1, kappa, V domains shown)
VH: QVQLVQSGAEVKKPGSSVKVSCKASGGTFSNYWMHWVRQAPGQGLEWMGATYRGHSDTYYNQKFKGRVTITADKSTSTAYMELSSLRSEDTAVYYCARGAIYDGYDVLDNWGQGTLVTVSS
VL: DIQMTQSPSSLSASVGDRVTITCSASQDISNYLNWYQQKPGKAPKLLIYYTSNLHSGVPSRFSGSGSGTDFTLTISSLQPEDFATYYCQQYRKLPWTFGQGTKLEIKR
notes: Humanised CA8, heavy chain J6 with light chain M0, human IgG1 kappa; also called CA8 J6M0; humanised J6M0 (wild type)
With B6, in [11], the binding result is “binds”. Moreover, the Kd in assay [2] is 5.63 nM; in assay [3] it was 0.086 nM; in assay [14], 0.698 nM; in assay [15] it was 0.121 nM; in assay [16] it was 0.498 nM; in [5], 0.308 nM. Also, the “IC50 (read off the curve)” value in assay [6] was approximately 0.6 µg/mL; in assay [10], approximately 0.7 µg/mL. Moreover, the EC50 was 0.63 µg/mL in assay [8] and 0.776 µg/mL in assay [9].

B7: CA8 humanised J6M2 (antibody, human IgG1, kappa, V domains shown)
VH: QVQLVQSGAEVKKPGSSVKVSCKASGGTFSNYWMHWVRQAPGQGLEWMGATYRGHSDTYYNQKFKGRVTITADKSTSTAYMELSSLRSEDTAVYYCARGAIYDGYDVLDNWGQGTLVTVSS
VL: DIQLTQSPSSLSASVGDRVTITCSASQDISNYLNWYQQKPGKAPELVIYYTSNLHSGVPSRFSGSGSGTDYTLTISSLQPEDFATYYCQQYRKLPWTFGQGTKLEIKR
notes: Humanised CA8, heavy chain J6 with light chain M2, human IgG1 kappa; also called CA8 J6M2
Turning to B7, the binding result in [11] is on record as “binds”. For the same molecule, the values for the Kd in [2], in [3] and in assay [5] were 6.86 nM, 0.071 nM and 0.202 nM, respectively.

B8: murine S332121F02 (antibody, V domains shown)
VH: EVQLQQSGPVLVKPGASVKMSCEASGYTFTDYYMNWVKQSHGKTLEWIGVINPYNGGTDYNQKFKGKATLTVDKSSSTAYMELNSLTSEDSAVYYCARSVYDYPFDYWGQGTLVTVSS
VL: DIVLTQSPASLAVSLGQRATISCRASESVSIHGTHLMHWYQQKPGQPPKLLIYAASNLESGVPARFSGSGSETDFTLNIHPVEEEDAATYFCQQSIEDPRTFGGGTKLEIK
notes: Murine hybridoma antibody
Take B8: the binding result in assay [1] is given as “binds”.
